Columns and labels:
[1] = tested on: 2008/C13* cells; assay: Morphologic changes induced by EGF (light microscopy of colonies); format: cell-based, human; settings: 2 h EGF exposure
Text: (§1) The colonies formed by the COLO 316 cells appeared somewhat denser.

[2] = tested on: 2008 cells; assay: as above; format: cell-based, human; settings: 10 nM EGF for 2 hs, inspected after 10 days
Text: as §1

[3] = tested on: COLO 316 cells; assay: as above; format: cell-based, human; settings: 10 nM EGF for 2 hs, inspected after 10 days
Text: as §1

[4] = tested on: 2008/C13* cells; assay: Growth rate under EGF exposure; format: cell-based, human; settings: 2 h or continuous exposure to 10 nM EGF
Text: (§2) During the first 5 days after cell seeding, cell growth was exponential. The doubling times of the 2008, 2008/C13*, and COLO 316 cells were 27.9, 28.2, and 29.2 hs, respectively.

[5] = tested on: 2008 cells; assay: Growth rate under EGF exposure; format: cell-based, human; settings: 2 h or continuous exposure to 10 nM EGF
Text: as §2

[6] = tested on: COLO 316 cells; assay: Growth rate under EGF exposure; format: cell-based, human; settings: 2 h or continuous exposure to 10 nM EGF
Text: as §2

[7] = tested on: 2008 human ovarian carcinoma cells; assay: Colony forming assay, effect of EGF on sensitivity to cytotoxic agents; format: cell-based; settings: for survival, % of control cells treated with DDP alone: DDP and EGF together
[8] = set-up: species or system mice; settings: mouse, in vivo
Procedure: For nephrotoxicity studies, 72 h after treatment, mice were anesthetized and 1.5 ml of blood was sampled by cardiac puncture. Plasma creatinine and blood urea nitrogen (BUN) levels were used to measure toxicity and were determined by an enzymatic method previously described (Kulpman et al., J. Clin. Chem. Clin. Biochem. 28(11): 835 (1990)).

[9] = tested on: 2008 tumor xenografts; assay: Effect of EGF on cisplatin toxicity against tumor xenografts in athymic mice; format: in vivo, athymic mice (nu/nu)
Procedure: For these studies, 3 to 4 week old female athymic mice (nu/nu) from BALB/c origin were used which were supplied by Harlan Sprague Dawley, Inc. (Indianapolis, Ind.). The mice were kept in a laminar flow hood at 28° C. and fed standard mouse diet and water ad libitum.
Tumor xenografts were established from 2008 cells by harvesting confluent cell cultures by trypsinization and resuspending the cells in RPMI 1640 medium at 2.5×10^7 cells per ml. From this suspension, 0.2 ml aliquots containing 5×10^6 cells were injected s.c. on each shoulder of the athymic mice. In each mouse, two tumors were followed and tumor volumes were determined using the formula (length×width^2)/2 (Giavazzi et al., Cancer Res. 46:1928 (1986) and Tomayko & Reynolds Cancer Chemother. Pharmacol. 24:148 (1989)).
In all groups, treatment was administered 24 hours after the inoculation with tumor cells.
Tumor growth of each tumor in each animal was expressed as plot of in(tumor volume) as a function of time. The regression line of the in(tumor volume) versus time plot was calculated by using the method of least squares. The intercept and slope were obtained and used to calculate the time each tumor required to reach an arbitrarily defined volume of 1 ml. This volume was chosen because most tumors in all treatment groups reached this endpoint. For comparisons between two groups the unpaired Student's T-test was used. […]

[10] = 2 h exposure to EGF (1 h before and 1 h concurrent with DDP)
[11] = delay between 1 h EGF pre-treatment and 1 h DDP exposure

B1: EGF: Epidermal Growth Factor; murine EGF (Sigma) in clonogenic assays, 125I-labelled human recombinant EGF in binding assays (protein, UniProt P01133 23-1207, looked up)
Pro-epidermal growth factor: PQHWSCPEGTLAGNGNSTCVGPAPFLIFSHGNSIFRIDTEGTNYEQLVVDAGVSVIMDFHYNEKRIYWVDLERQLLQRVFLNGSRQERVCNIEKNVSGMAINWINEEVIWSNQQEGIITVTDMKGNNSHILLSALKYPANVAVDPVERFIFWSSEVAGSLYRADLDGVGVKALLETSEKITAVSLDVLDKRLFWIQYNREGSNSLICSCDYDGGSVHISKHPTQHNLFAMSLFGDRIFYSTWKMKTIWIANKHTGKDMVRINLHSSFVPLGELKVVHPLAQPKAEDDTWEPEQKLCKLRKGNCSSTVCGQDLQSHLCMCAEGYALSRDRKYCEDVNECAFWNHGCTLGCKNTPGSYYCTCPVGFVLLPDGKRCHQLVSCPRNVSECSHDCVLTSEGPLCFCPEGSVLERDGKTCSGCSSPDNGGCSQLCVPLSPVSWECDCFPGYDLQLDEKSCAASGPQPFLLFANSQDIRHMHFDGTDYGTLLSQQMGMVYALDHDPVENKIYFAHTALKWIERANMDGSQRERLIEEGVDVPEGLAVDWIGRRFYWTDRGKSLIGRSDLNGKRSKIITKENISQPRGIAVHPMAKRLFWTDTGINPRIESSSLQGLGRLVIASSDLIWPSGITIDFLTDKLYWCDAKQSVIEMANLDGSKRRRLTQNDVGHPFAVAVFEDYVWFSDWAMPSVMRVNKRTGKDRVRLQGSMLKPSSLVVVHPLAKPGADPCLYQNGGCEHICKKRLGTAWCSCREGFMKASDGKTCLALDGHQLLAGGEVDLKNQVTPLDILSKTRVSEDNITESQHMLVAEIMVSDQDDCAPVGCSMYARCISEGEDATCQCLKGFAGDGKLCSDIDECEMGVPVCPPASSKCINTEGGYVCRCSEGYQGDGIHCLDIDECQLGEHSCGENASCTNTEGGYTCMCAGRLSEPGLICPDSTPPPHLREDDHHYSVRNSDSECPLSHDGYCLHDGVCMYIEALDKYACNCVVGYIGERCQYRDLKWWELRHAGHGQQQKVIVVAVCVVVLVMLLLLSLWGAHYYRTQKLLSKNPKNPYEESSRDVRSRRPADTEDGMSSCPQPWFVVIKEHQDLKNGGQPVAGEDGQAADGSMQPTSWRQEPQLCGMGTEQGCWIPVSSDKGSCPQVMERSFHMPSYGTQTLEGGVEKPHSLLSANPLWQQRALDPPHQMELTQ
modifications: Pro-epidermal growth factor 125I-labelled; murine EGF also used
- morphologic response [1]: showed no morphologic response
- morphologic change of colonies [2]: marked scattering of the colonies and the formation of prominent dendritic processes
- morphologic change of colonies [3]: marked scattering of the colonies and the formation of prominent dendritic processes
- effect on growth rate [4]: Neither a 2 h nor a continuous exposure to 10 nM EGF had any demonstrable impact on the growth rate
- effect on growth rate [5]: Neither a 2 h nor a continuous exposure to 10 nM EGF had any demonstrable impact on the growth rate
- effect on growth rate [6]: Neither a 2 h nor a continuous exposure to 10 nM EGF had any demonstrable impact on the growth rate
- EGF concentration of maximal enhancement of DDP sensitivity [7, 10]: about 10 nM
- lowest EGF concentration that enhanced sensitivity to DDP [7, 10]: 0.4 nM
- survival, % of control cells treated with DDP alone ([7]; no cyclohexamide): 31±10%
- survival, % of control cells treated with DDP alone ([7]; pretreatment with cyclohexamide inhibiting protein synthesis by 90%): 47±8%
- effect of further increase in EGF concentration ([7]; EGF up to 100 nM): no additional change in sensitivity to DDP
- loss of EGF mediated increase in sensitivity to DDP [7, 11]: largely disappeared by 24 hs
- persistence of EGF mediated increase in sensitivity to DDP [7, 11]: at least 6 hs
- serum creatinine or BUN [8]: Neither treatment with EGF alone, cisplatin alone, or EGF plus cisplatin resulted in statistically significant increases in serum creatinine or BUN
- time required for tumors to reach a volume of 1 ml (in words) ([9]; 1 mg/kg EGF s.c. alone or with 15 mg/kg cisplatin i.p.): no effect on the time required for tumors to reach a volume of 1 ml
- final tumor volume ([9]; 1 mg/kg EGF s.c. and/or 15 mg/kg cisplatin i.p., 24 hours after inoculation): no effect on the final tumor volume
